Source: patent publication US20200392227A1 (LYVGEN BIOPHARMA, published 2020)
Where two headings read alike, the source gives them in different places.

T1: human FcRIIA protein (MednaBio, E1033) (human, UniProt P12318 34-218, limits assumed)
T1 construct: Bought; also called FcγRIIA
T1 sequence (looked up): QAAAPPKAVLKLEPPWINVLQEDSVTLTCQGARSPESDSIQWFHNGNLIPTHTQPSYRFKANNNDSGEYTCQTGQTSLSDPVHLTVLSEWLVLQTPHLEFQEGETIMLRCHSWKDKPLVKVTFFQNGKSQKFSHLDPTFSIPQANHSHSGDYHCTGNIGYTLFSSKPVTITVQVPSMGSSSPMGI

T2: human FcRIIB/C protein (MednaBio, E1034) (human, UniProt P31994 43-217, limits assumed)
T2 construct: Bought as FcRIIB/C; also called FcγRIIB; CD32B
T2 sequence (looked up): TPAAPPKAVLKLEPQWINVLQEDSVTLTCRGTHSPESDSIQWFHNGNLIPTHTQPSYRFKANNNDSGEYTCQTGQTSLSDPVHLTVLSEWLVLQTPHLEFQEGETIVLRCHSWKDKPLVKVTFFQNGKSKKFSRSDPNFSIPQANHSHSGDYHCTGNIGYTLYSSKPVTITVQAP

T3: human FcγRIIC expressed on CHO cells (human, UniProt P31995 43-323)
T3 construct: whole, on cells
T3 sequence (looked up): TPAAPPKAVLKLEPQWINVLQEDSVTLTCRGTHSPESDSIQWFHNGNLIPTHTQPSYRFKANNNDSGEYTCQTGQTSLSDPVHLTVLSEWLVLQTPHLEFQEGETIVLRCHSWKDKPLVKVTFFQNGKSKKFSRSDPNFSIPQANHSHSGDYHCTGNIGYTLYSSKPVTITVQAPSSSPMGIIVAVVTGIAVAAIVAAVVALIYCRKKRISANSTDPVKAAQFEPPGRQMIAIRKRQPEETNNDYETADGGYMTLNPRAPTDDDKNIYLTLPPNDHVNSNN


How the values were obtained:
[1] = molecular target: T4, human FcRI protein (MednaBio, E1031) (human, UniProt P12314 16-288, limits assumed); experiment: BLI
T4 construct: Bought; loaded on anti-penta-HIS biosensors; also called FcγRI
T4 sequence (P12314 16-288 limits assumed): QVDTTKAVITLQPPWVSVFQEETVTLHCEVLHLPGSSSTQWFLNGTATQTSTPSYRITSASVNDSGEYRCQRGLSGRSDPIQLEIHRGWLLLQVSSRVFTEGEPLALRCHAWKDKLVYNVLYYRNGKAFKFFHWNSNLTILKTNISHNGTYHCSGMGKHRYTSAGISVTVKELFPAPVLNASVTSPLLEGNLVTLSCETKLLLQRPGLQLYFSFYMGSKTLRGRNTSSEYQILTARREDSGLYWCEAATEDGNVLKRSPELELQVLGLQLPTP
Summary of the method: (§1)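 On an Octet Red96 System, anti-penta-HIS biosensors loaded with commercial human Fc receptor proteins were dipped into test IgG diluted 1:3 over 8 points from 300 nM. Fcγ receptor runs used pH 7.2 and FcRn runs used pH 6. Global fitting of these biolayer interferometry data gave the values for Kd, kon and koff, using a 1:1 binding model.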

[2] = molecular target: T1, human FcRIIA protein (MednaBio, E1033); experiment: BLI
Summary of the method: as §1

[3] = molecular target: T2, human FcRIIB/C protein (MednaBio, E1034); experiment: BLI
Summary of the method: as §1

[4] = molecular target: T5, human FcRIIIA-F158 protein (MednaBio, E1036) (human, UniProt P08637 17-208); experiment: BLI
T5 construct: Bought; also called FcγRIIIA(F)
T5 sequence (P08637 17-208 limits assumed): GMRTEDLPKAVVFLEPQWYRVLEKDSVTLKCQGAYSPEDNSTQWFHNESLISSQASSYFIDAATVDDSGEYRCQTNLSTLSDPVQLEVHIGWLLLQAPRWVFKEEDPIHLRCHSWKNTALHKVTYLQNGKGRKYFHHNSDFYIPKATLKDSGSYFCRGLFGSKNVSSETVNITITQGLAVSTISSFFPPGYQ
Summary of the method: as §1

[5] = molecular target: T6, human FcRIIIA-V158 protein (MednaBio, E1035) (human, UniProt P08637 17-208); experiment: BLI
T6 construct: Bought; also called FcγRIIIA(V); FcgRIIIA(V)
T6 sequence (P08637 17-208 F176V): as the sequence (P08637 17-208 limits assumed) above, with F160V counted along it
Summary of the method: as §1

[6] = molecular target: T7, human FcRIIIB protein (MednaBio, E1037) (human, UniProt O75015 17-200); experiment: BLI
T7 construct: Bought; also called FcγRIIIB; FcgRIIIB
T7 sequence (O75015 17-200 limits assumed): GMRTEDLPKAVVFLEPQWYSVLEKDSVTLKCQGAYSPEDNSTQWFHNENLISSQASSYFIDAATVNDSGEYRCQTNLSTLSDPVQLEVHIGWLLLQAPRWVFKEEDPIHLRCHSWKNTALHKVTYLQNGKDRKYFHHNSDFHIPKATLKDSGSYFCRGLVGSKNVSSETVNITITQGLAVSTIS
Summary of the method: as §1

[7] = molecular target: T8, human FcRn protein (MednaBio, E1032) (human, UniProt P55899 24-297; P61769 21-119); experiment: BLI
T8 construct: Bought; assays at pH 6
Summary of the method: as §1

[8] = molecular target: T3, human FcγRIIC expressed on CHO cells; experiment: FACS, CHO cells expressing FcγRIIC
Protocol: FIGS. 1A-1W are charts showing binding activity of various IgG variants as indicated to different types of Fcγ receptors expressed on CHO-K1 cells at the various concentrations as indicated. The concentrations of each IgG variant, from left to right, are 0 μg/ml, 0.3 μg/ml, 1 μg/ml, 3 μg/ml, and 10 μg/ml in FIGS. 1A-1C, 1E-J, 1L-1M, 1P-1R, and 1T-1V. For FIGS. 1D, 1K, 10, 1S, and 1w the bars, from left to right, correspond to the following concentrations of IgG variant: 0.3 μg/ml, 1 μg/ml, 3 μg/ml, and 10 μg/ml.
For FACS analysis of the IgG mutants' binding to different FcγRs, FcγR overexpressing CHO cells were harvested using trypsin-EDTA and were suspended in cold staining buffer (3% BSA in PBS). Test IgG mutants, which were diluted in staining buffer, were added into the cells. The mixture was incubated 4° C. for 2 hours, and then washed twice with cold staining buffer and re-suspended in PE-labeled anti-human IgG followed by incubation at 4° C. for 2 hours. The mixture was washed twice with staining buffer and re-suspended in 2% PFA in PBS for FACS.

[9] = molecular target: T4, human FcRI protein (MednaBio, E1031); experiment: BLI; remark: listed apart in the source
Summary of the method: as §1

[10] = molecular target: T1, human FcRIIA protein (MednaBio, E1033); experiment: BLI; remark: listed apart in the source
Summary of the method: as §1

[11] = molecular target: T2, human FcRIIB/C protein (MednaBio, E1034); experiment: BLI; remark: listed apart in the source
Summary of the method: as §1

[12] = molecular target: T5, human FcRIIIA-F158 protein (MednaBio, …); experiment: BLI; remark: listed apart in the source
Summary of the method: as §1

[13] = molecular target: T6, human FcRIIIA-V158 protein (MednaBio, …); experiment: BLI; remark: listed apart in the source
Summary of the method: as §1

[14] = molecular target: T7, human FcRIIIB protein (MednaBio, E1037); experiment: BLI; remark: listed apart in the source
Summary of the method: as §1

[15] = molecular target: T8, human FcRn protein (MednaBio, E1032); experiment: BLI; remark: listed apart in the source
Summary of the method: as §1

Row | Kd [9] | koff [9] | kon [9] | Kd [10] | koff [10] | kon [10] | Kd [11] | koff [11] | kon [11] | binding result [12] | binding result [13] | binding result [14] | Kd [15] | koff [15] | kon [15] | Binder | also measured
1 | – | – | – | – | – | – | – | – | – | – | – | – | – | – | – | anti-CD137 IgG4 with Fc variant G4m7 (antibody, copies: 2 + 2) heavy: not shown light: SYELTQPPSVSVSPGQTASITCSGDNIGDQYAHWYQQKPGQSPVLVIYQDKNRPSGIPERFSGSNSGNTATLTISGTQAMDEADYYCATYTGFGSLAVFGGGTKLTVLGQPKAAPSVTLFPPSSEELQANKATLVCLISDFYPGAVTVAWKADSSPVKAGVETTTPSKQSNNKYAASSYLSLTPEQWKSHRSYSCQVTHEGSTVEKTVAPTECS | Kd [1]: 2.1 nM; koff [1]: 0.0011 s⁻¹; kon [1]: 540000 M⁻¹ s⁻¹; Kd [2]: 210 nM; koff [2]: 0.034 s⁻¹; kon [2]: 160000 M⁻¹ s⁻¹; Kd [3]: 45 nM; koff [3]: 0.02 s⁻¹; kon [3]: 440000 M⁻¹ s⁻¹; binding result [4]: no binding (tested: 300 nM); binding result [5]: no binding (tested: 300 nM); binding result [6]: no binding (tested: 300 nM); Kd [7]: 23 nM; koff [7]: 0.012 s⁻¹; kon [7]: 520000 M⁻¹ s⁻¹; binding result [8]: binds
2 | 260 nM | 0.21 s⁻¹ | 830000 M⁻¹ s⁻¹ | 140 nM | 0.029 s⁻¹ | 200000 M⁻¹ s⁻¹ | 670 nM | 0.39 s⁻¹ | 580000 M⁻¹ s⁻¹ | no binding (tested: 300 nM) | no binding (tested: 300 nM) | no binding (tested: 300 nM) | 12.8 nM | 0.00803 s⁻¹ | 630000 M⁻¹ s⁻¹ | anti-CD137 IgG1 with Fc variant G1m18 (antibody, copies: 2 + 2) heavy: EVQLVQSGAEVKKPGESLRISCKGSGYSFSTYWISWVRQMPGKGLEWMGKIYPGDSYTNYSPSFQGQVTISADKSISTAYLQWSSLKASDTAMYYCARGYGIFDYWGQGTLVTVSSASTKGPSVFPLAPSSKSTSGGTAALGCLVKDYFPEPVTVSWNSGALTSGVHTFPAVLQSSGLYSLSSVVTVPSSSLGTQTYICNVNHKPSNTKVDKKVEPKSCDKTHTCPPCPAPELLSVFLFPPKPKDTLMISRTPEVTCVVVDVSHEDPEVKFNWYVDGVEVHNAKTKPREEQYNSTYRVVSVLTVLHQDWLNGKEYKCKVSNKAFPAPIEKTISKAKGQPREPQVYTLPPSREEMTKNQVSLTCLVKGFYPSDIAVEWESNGQPENNYKTTPPVLDSDGSFFLYSKLTVDKSRWQQGNVFSCSVMHEALHNHYTQKSLSLSPGK light: SYELTQPPSVSVSPGQTASITCSGDNIGDQYAHWYQQKPGQSPVLVIYQDKNRPSGIPERFSGSNSGNTATLTISGTQAMDEADYYCATYTGFGSLAVFGGGTKLTVLGQPKAAPSVTLFPPSSEELQANKATLVCLISDFYPGAVTVAWKADSSPVKAGVETTTPSKQSNNKYAASSYLSLTPEQWKSHRSYSCQVTHEGSTVEKTVAPTECS | –
3 | 88 nM | 0.041 s⁻¹ | 460000 M⁻¹ s⁻¹ | 250 nM | 0.059 s⁻¹ | 240000 M⁻¹ s⁻¹ | 180 nM | 0.043 s⁻¹ | 240000 M⁻¹ s⁻¹ | no binding (tested: 300 nM) | no binding (tested: 300 nM) | no binding (tested: 300 nM) | 10.7 nM | 0.00764 s⁻¹ | 715000 M⁻¹ s⁻¹ | anti-CD137 IgG1 with Fc variant G1m17 (antibody, copies: 2 + 2) heavy: EVQLVQSGAEVKKPGESLRISCKGSGYSFSTYWISWVRQMPGKGLEWMGKIYPGDSYTNYSPSFQGQVTISADKSISTAYLQWSSLKASDTAMYYCARGYGIFDYWGQGTLVTVSSASTKGPSVFPLAPSSKSTSGGTAALGCLVKDYFPEPVTVSWNSGALTSGVHTFPAVLQSSGLYSLSSVVTVPSSSLGTQTYICNVNHKPSNTKVDKKVEPKSCDKTHTCPPCPAPELLSVFLFPPKPKDTLMISRTPEVTCVVVDVEHEDPEVKFNWYVDGVEVHNAKTKPREEQYNSTYRVVSVLTVLHQDWLNGKEYKCKVSNKALPAPIEKTISKAKGQPREPQVYTLPPSREEMTKNQVSLTCLVKGFYPSDIAVEWESNGQPENNYKTTPPVLDSDGSFFLYSKLTVDKSRWQQGNVFSCSVMHEALHNHYTQKSLSLSPGK light: SYELTQPPSVSVSPGQTASITCSGDNIGDQYAHWYQQKPGQSPVLVIYQDKNRPSGIPERFSGSNSGNTATLTISGTQAMDEADYYCATYTGFGSLAVFGGGTKLTVLGQPKAAPSVTLFPPSSEELQANKATLVCLISDFYPGAVTVAWKADSSPVKAGVETTTPSKQSNNKYAASSYLSLTPEQWKSHRSYSCQVTHEGSTVEKTVAPTECS | –
4 | 120 nM | 0.06 s⁻¹ | 500000 M⁻¹ s⁻¹ | 480 nM | 0.11 s⁻¹ | 230000 M⁻¹ s⁻¹ | 700 nM | 0.38 s⁻¹ | 540000 M⁻¹ s⁻¹ | no binding (tested: 300 nM) | no binding (tested: 300 nM) | no binding (tested: 300 nM) | 21 nM | 0.013 s⁻¹ | 600000 M⁻¹ s⁻¹ | anti-CD137 IgG1 with Fc variant G1m15 (antibody, copies: 2 + 2) heavy: EVQLVQSGAEVKKPGESLRISCKGSGYSFSTYWISWVRQMPGKGLEWMGKIYPGDSYTNYSPSFQGQVTISADKSISTAYLQWSSLKASDTAMYYCARGYGIFDYWGQGTLVTVSSASTKGPSVFPLAPSSKSTSGGTAALGCLVKDYFPEPVTVSWNSGALTSGVHTFPAVLQSSGLYSLSSVVTVPSSSLGTQTYICNVNHKPSNTKVDKKVEPKSCDKTHTCPPCPAPELLSVFLFPPKPKDTLMISRTPEVTCVVVDVSHEDPEEKFNWYVDGVEVHNAKTKPREEQYNSTYRVVSVLTVLHQDWLNGKEYKCKVSNKALPAPIEKTISKAKGQPREPQVYTLPPSREEMTKNQVSLTCLVKGFYPSDIAVEWESNGQPENNYKTTPPVLDSDGSFFLYSKLTVDKSRWQQGNVFSCSVMHEALHNHYTQKSLSLSPGK light: SYELTQPPSVSVSPGQTASITCSGDNIGDQYAHWYQQKPGQSPVLVIYQDKNRPSGIPERFSGSNSGNTATLTISGTQAMDEADYYCATYTGFGSLAVFGGGTKLTVLGQPKAAPSVTLFPPSSEELQANKATLVCLISDFYPGAVTVAWKADSSPVKAGVETTTPSKQSNNKYAASSYLSLTPEQWKSHRSYSCQVTHEGSTVEKTVAPTECS | –
